In publication doi:10.1101/2022.02.07.479474:

Key:
Assay in all cases: NMR
PBRM1 BD4 KRK = PBRM1 BD4 KRK (UniProt Q86U86 496-637, K511A;R512A;K513A)
PBRM1 BD2 SKY = PBRM1 BD2 SKY (UniProt Q86U86 178-291, S275A;K277A;Y281A)
PBRM1 BD4 = PBRM1 BD4 (UniProt Q86U86 496-637)
PBRM1 BD2 = PBRM1 BD2 (UniProt Q86U86 178-291)
PBRM1 BD2, sequence (Q86U86 178-291): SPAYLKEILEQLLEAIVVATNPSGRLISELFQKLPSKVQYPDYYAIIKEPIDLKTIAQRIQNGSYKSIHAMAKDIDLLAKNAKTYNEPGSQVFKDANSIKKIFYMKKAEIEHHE

PBRM1 BD4, sequence (Q86U86 496-637): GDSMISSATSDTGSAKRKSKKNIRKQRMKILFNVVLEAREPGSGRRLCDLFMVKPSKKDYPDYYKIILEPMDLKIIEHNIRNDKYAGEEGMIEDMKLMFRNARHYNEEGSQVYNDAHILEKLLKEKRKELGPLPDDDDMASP
PBRM1 BD4 KRK, sequence (Q86U86 496-637 K511A/R512A/K513A): as the sequence (Q86U86 496-637) above, with K16A, R17A, K18A counted along it
PBRM1 BD2 SKY, sequence (Q86U86 178-291 S275A/K277A/Y281A): as the sequence (Q86U86 178-291) above, with S98A, K100A, Y104A counted along it

B1: dsRNAI (structured_RNA)
RNA: GCGUAGACAGCUGUUCGCAGCUGUCUAUGC
B1 gave a Kd (PBRM1 BD4 KRK) of 1020 ± 40 µM, a Kd (PBRM1 BD2 SKY) of 200 ± 70 µM and a Kd (PBRM1 BD4) of 120 ± 20 µM. For the same binder, the Kd (PBRM1 BD2) was 25 ± 8 µM.
